Test results as given in the supplement of paper PMC9112550, “Optimization of the antimicrobial peptide Bac7 by deep mutational scanning” (BMC Biology, 2022).

system: Escherichia coli TOP10; assay: shrunken log2 fold change of peptide-encoding DNA abundance (4.5 h post-induction vs induction); higher = less antimicrobial activity (less host growth inhibition); conditions: time post-induction: 4.5 h; library: site-saturation at positions 5, 18, 19, 20
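Note: peptides expressed intracellularly from a pBAD plasmid library in pooled LB shake-flask culture, induced with 0.3% L-arabinose, DNA abundance read by NGS, three biological replicates, DESeq2 with apeglm shrinkage.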

Sequence | shrunken log2 fold change
RRIRERPPRLPRPRPRPAYEPRP | -0.00975
RRIRTRPPRLPRPRPRPKHRPRP | -0.191
RRIRTRPPRLPRPRPRPGLQPRP | -0.138
RRIRMRPPRLPRPRPRPELNPRP | 0.0722
RRIRSRPPRLPRPRPRPAPCPRP | 0.308
RRIRERPPRLPRPRPRPAIWPRP | 0.129
RRIRHRPPRLPRPRPRPFGCPRP | 0.0728
RRIRNRPPRLPRPRPRPAELPRP | -0.0198
RRIRERPPRLPRPRPRPLPRPRP | 0.179
RRIRVRPPRLPRPRPRPCMQPRP | 0.162
RRIRGRPPRLPRPRPRPWIRPRP | -0.164
RRIRDRPPRLPRPRPRPVHFPRP | 0.033
RRIRLRPPRLPRPRPRPSWQPRP | -0.0855
RRIRQRPPRLPRPRPRPQWHPRP | -0.0165
RRIRVRPPRLPRPRPRPRIAPRP | 0.0659
RRIRWRPPRLPRPRPRPLNTPRP | 0.0456
RRIRNRPPRLPRPRPRPTVLPRP | -0.091
RRIRLRPPRLPRPRPRPCVMPRP | 0.025
RRIRDRPPRLPRPRPRPANMPRP | -0.229
RRIRIRPPRLPRPRPRPVIQPRP | -1.44
RRIRIRPPRLPRPRPRPLYWPRP | -0.456
RRIRQRPPRLPRPRPRPGVIPRP | 0.0679
RRIRWRPPRLPRPRPRPCRAPRP | 0.217
RRIRHRPPRLPRPRPRPDAFPRP | -0.0702
RRIRMRPPRLPRPRPRPWMKPRP | -0.234

Sequence | shrunken log2 fold change
RRIRIRPPRLPRPRPRPQGIPRP | -0.012
RRIRDRPPRLPRPRPRPEVDPRP | 0.00961
RRIRHRPPRLPRPRPRPGGMPRP | 0.274
RRIRRRPPRLPRPRPRPQIQPRP | 0.151
RRIRMRPPRLPRPRPRPGMWPRP | 0.292
RRIRLRPPRLPRPRPRPLDFPRP | -0.162
RRIRWRPPRLPRPRPRPYPDPRP | -0.106
RRIRKRPPRLPRPRPRPKFFPRP | 0.219
RRIRQRPPRLPRPRPRPNWKPRP | 0.135
RRIRERPPRLPRPRPRPVCFPRP | -0.173
RRIRLRPPRLPRPRPRPELFPRP | 0.303
RRIRQRPPRLPRPRPRPQHHPRP | -0.527
RRIRIRPPRLPRPRPRPAQCPRP | 0.211
RRIRRRPPRLPRPRPRPEFYPRP | 0.413
RRIRKRPPRLPRPRPRPDMFPRP | -0.258
RRIRSRPPRLPRPRPRPGHLPRP | -0.236
RRIRPRPPRLPRPRPRPIYWPRP | 0.00563
RRIRQRPPRLPRPRPRPYNKPRP | -0.403
RRIRYRPPRLPRPRPRPMQNPRP | -0.488
RRIRHRPPRLPRPRPRPDNTPRP | -0.0928
RRIRCRPPRLPRPRPRPLHCPRP | -0.1
RRIRIRPPRLPRPRPRPHTGPRP | -0.356
RRIRYRPPRLPRPRPRPYRPPRP | -0.0134
RRIRARPPRLPRPRPRPFSHPRP | -0.124
RRIRSRPPRLPRPRPRPRYPPRP | -0.036

Sequence | shrunken log2 fold change
RRIRNRPPRLPRPRPRPYSFPRP | -1.01
RRIRKRPPRLPRPRPRPTQLPRP | 0.65
RRIRLRPPRLPRPRPRPNVTPRP | -0.286
RRIRCRPPRLPRPRPRPTIIPRP | -0.343
RRIRTRPPRLPRPRPRPYDVPRP | -0.153
RRIRARPPRLPRPRPRPYSTPRP | -0.563
RRIRKRPPRLPRPRPRPLGQPRP | 0.991
RRIRKRPPRLPRPRPRPLKFPRP | -0.118
RRIRGRPPRLPRPRPRPSFKPRP | -0.0759
RRIRKRPPRLPRPRPRPMENPRP | 0.0428
RRIRARPPRLPRPRPRPWLNPRP | -0.175
RRIRSRPPRLPRPRPRPWGNPRP | -0.236
RRIRVRPPRLPRPRPRPWSEPRP | -0.00215
RRIRIRPPRLPRPRPRPEPYPRP | 0.0464
RRIRQRPPRLPRPRPRPQWYPRP | -0.0123
RRIRARPPRLPRPRPRPFRTPRP | 0.12
RRIRARPPRLPRPRPRPGVNPRP | -0.238
RRIRHRPPRLPRPRPRPRHFPRP | -0.0239
RRIRSRPPRLPRPRPRPFHFPRP | -0.308
RRIRGRPPRLPRPRPRPNPWPRP | 0.454
RRIRHRPPRLPRPRPRPNREPRP | -0.107
RRIRARPPRLPRPRPRPAEAPRP | 0.161
RRIRRRPPRLPRPRPRPEHFPRP | 0.301
RRIRHRPPRLPRPRPRPCILPRP | -0.134
RRIRQRPPRLPRPRPRPPPLPRP | 0.977

Sequence | shrunken log2 fold change
RRIRNRPPRLPRPRPRPHHAPRP | -0.0601
RRIRERPPRLPRPRPRPGMLPRP | -0.0705
RRIRTRPPRLPRPRPRPGSAPRP | 0.362
RRIRKRPPRLPRPRPRPPTSPRP | 0.146
RRIRARPPRLPRPRPRPAMNPRP | 0.121
RRIRNRPPRLPRPRPRPYFRPRP | -0.766
RRIRMRPPRLPRPRPRPMQMPRP | 0.671
RRIRARPPRLPRPRPRPYCLPRP | -0.729
RRIRPRPPRLPRPRPRPYVWPRP | -0.365
RRIRLRPPRLPRPRPRPQQFPRP | -0.0691
RRIRFRPPRLPRPRPRPNCMPRP | -0.143
RRIRMRPPRLPRPRPRPNAGPRP | 0.416
RRIRMRPPRLPRPRPRPHLMPRP | 0.151
RRIRFRPPRLPRPRPRPVDAPRP | 0.183
RRIRHRPPRLPRPRPRPLHTPRP | 0.143
RRIRARPPRLPRPRPRPETNPRP | 1.01
RRIRDRPPRLPRPRPRPVYMPRP | -0.506
RRIRGRPPRLPRPRPRPRRDPRP | 0.424
RRIRHRPPRLPRPRPRPQEVPRP | -0.0461
RRIRHRPPRLPRPRPRPGVLPRP | 0.0408
RRIRGRPPRLPRPRPRPNSNPRP | 0.0841
RRIRCRPPRLPRPRPRPETSPRP | 0.0533
RRIRHRPPRLPRPRPRPAEMPRP | -0.01
RRIRGRPPRLPRPRPRPTCRPRP | 0.825
RRIRTRPPRLPRPRPRPGYFPRP | -0.0719

Sequence | shrunken log2 fold change
RRIRNRPPRLPRPRPRPRRYPRP | 0.0725
RRIRCRPPRLPRPRPRPIIDPRP | -0.323
RRIRCRPPRLPRPRPRPCANPRP | 0.00335
RRIRMRPPRLPRPRPRPNQKPRP | 0.00203
RRIRWRPPRLPRPRPRPIALPRP | 0.0387
RRIRARPPRLPRPRPRPIWAPRP | 0.439
RRIRKRPPRLPRPRPRPVQFPRP | -0.0421
RRIRDRPPRLPRPRPRPGDGPRP | 0.85
RRIRDRPPRLPRPRPRPQNAPRP | -0.111
RRIRDRPPRLPRPRPRPWRCPRP | 0.26
RRIRPRPPRLPRPRPRPCILPRP | -1.04
RRIRNRPPRLPRPRPRPPSHPRP | -0.301
RRIRHRPPRLPRPRPRPLLKPRP | -0.013
RRIRTRPPRLPRPRPRPPNYPRP | -0.101
RRIRFRPPRLPRPRPRPVWEPRP | 0.00583
RRIRLRPPRLPRPRPRPSKTPRP | -0.258
RRIRERPPRLPRPRPRPLVCPRP | 0.00932
RRIRCRPPRLPRPRPRPGQGPRP | 0.43
RRIRGRPPRLPRPRPRPFSWPRP | 0.353
RRIRLRPPRLPRPRPRPRWWPRP | 0.13
RRIRTRPPRLPRPRPRPQLRPRP | -0.12
RRIRFRPPRLPRPRPRPYCAPRP | -0.517
RRIRARPPRLPRPRPRPRKAPRP | 0.0975
RRIRPRPPRLPRPRPRPRRMPRP | 0.297
RRIRARPPRLPRPRPRPLLSPRP | 0.367
